In article PMC12207370, “Macrocyclic Peptide Probes for Immunomodulatory Protein CD59: Potent Modulators of Bacterial Toxin Activity and Antibody‐Dependent Cytotoxicity” (Angewandte Chemie (International Ed. in English), 2025):

Molecular target: T1, biotinylated CD59 (Homo sapiens, UniProt P13987)
T1 construct: Recombinant soluble human CD59 with an additional C-terminal cysteine residue
T1 sequence (P13987 26-102 limits assumed): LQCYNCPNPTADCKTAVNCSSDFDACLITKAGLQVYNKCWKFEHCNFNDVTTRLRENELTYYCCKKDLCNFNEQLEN
Assay: mRNA-display cyclic peptide screen against CD59-biotin, NGS abundance after 6th selection round
Conditions: for Percentage Seq I: counts normalised by total counts of sample Seq I; for Percentage Seq I / Percentage Seq II: percentage of the pool; for Percentage Seq I / Percentage Seq II / Percentage Average / Percentage of the pool, averaged across the two sequencing samples / Percentage of the pool, Seq I / Percentage of the pool, Seq II: sheet R6; for Percentage Seq II: counts normalised by total counts of sample Seq II; for Percentage Average: percentage of the pool averaged across the two sequencing samples; for Counts Seq I / Counts Seq II: raw NGS counts of peptide sequence; for Counts Seq I: sequencing sample Seq I; for Counts Seq I / Counts Seq II / Counts (raw counts for peptide sequence), Seq I / Counts (raw counts for peptide sequence), Seq II: sheet R6 (6th selection round); for Counts Seq II: sequencing sample Seq II; for Counts (raw counts for peptide sequence), Seq I: NGS sample Seq I; for Counts (raw counts for peptide sequence), Seq II: NGS sample Seq II; for Percentage of the pool, averaged across the two sequencing samples: average of Seq I and Seq II; for Percentage of the pool, Seq I: counts normalised by total counts of NGS sample Seq I; for Percentage of the pool, Seq II: counts normalised by total counts of NGS sample Seq II
How it was run: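 Peptide–mRNA fusions were made by in vitro translation with a customised PURE express kit. The kit lacked release factor 1 and methionine and was supplemented with […] initiator tRNA carrying N-chloroacetyl-d-tyrosine. Thioether macrocycles were formed, then enriched and amplified over iterative rounds on CD59-biotin immobilised on streptavidin beads. NGS read counts per sequence were recorded after the 6th selection round.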

For HCWVRGSRDYT, the “Percentage Seq I” value was 0.028%, the “Percentage Seq II” value was 0.046% and the “Percentage Average” value was 0.037%. For the same sequence, the “Counts Seq I” value was 122 and the “Counts Seq II” value was 20.
In the case of HCWVRGSRNHT, the “Counts (raw counts for peptide sequence), Seq I” value is reported as 54, the “Counts (raw counts for peptide sequence), Seq II” value is reported as 5 and the “Percentage of the pool, averaged across the two sequencing samples” value is reported as 0.012%. The “Percentage of the pool, Seq I” value was 0.012% and the “Percentage of the pool, Seq II” value was 0.012%.
HCWVRGSRNYA was tested, and the “Percentage Seq I” value was 0.029%, the “Percentage Seq II” value was 0.028% and the “Percentage Average” value was 0.029%. For the same sequence, the “Counts Seq I” value was 128 and the “Counts Seq II” value was 12.
With HCWVRGSRNYS the “Counts (raw counts for peptide sequence), Seq I” value was 46, the “Counts (raw counts for peptide sequence), Seq II” value was 5 and the “Percentage of the pool, averaged across the two sequencing samples” value was 0.011%. The “Percentage of the pool, Seq I” value was 0.011% and the “Percentage of the pool, Seq II” value was 0.012%.
In the case of HCWVRGSRNYT, the “Percentage Seq I” value is reported as 2.570%, the “Percentage Seq II” value is reported as 2.548% and the “Percentage Average” value is reported as 2.559%. The “Counts Seq I” value was 11242 and the “Counts Seq II” value was 1098.
In the case of HCWVRGSRSYT, the “Percentage Seq I” value is reported as 0.022%, the “Percentage Seq II” value is reported as 0.021% and the “Percentage Average” value is reported as 0.022%. For the same sequence, the “Counts Seq I” value was 97 and the “Counts Seq II” value was 9.
For HQECWARGSRE, the “Counts (raw counts for peptide sequence), Seq I” value was 68, the “Counts (raw counts for peptide sequence), Seq II” value was 5 and the “Percentage of the pool, averaged across the two sequencing samples” value was 0.014%. For the same sequence, the “Percentage of the pool, Seq I” value was 0.016% and the “Percentage of the pool, Seq II” value was 0.012%.
In the case of HSYGSSQIAYH, the “Counts (raw counts for peptide sequence), Seq I” value is reported as 74, the “Counts (raw counts for peptide sequence), Seq II” value is reported as 8 and the “Percentage of the pool, averaged across the two sequencing samples” value is reported as 0.018%. The “Percentage of the pool, Seq I” value was 0.017% and the “Percentage of the pool, Seq II” value was 0.019%.
In the case of HVFGDRSFTRG, the “Percentage Seq I” value is reported as 0.028%, the “Percentage Seq II” value is reported as 0.026% and the “Percentage Average” value is reported as 0.027%. For the same sequence, the “Counts Seq I” value was 124 and the “Counts Seq II” value was 11.
HVFGNGSFTRG was tested, and the “Percentage Seq I” value was 0.031%, the “Percentage Seq II” value was 0.035% and the “Percentage Average” value was 0.033%. For the same sequence, the “Counts Seq I” value was 137 and the “Counts Seq II” value was 15.
In the case of HVFGNKSFTRG, the “Counts (raw counts for peptide sequence), Seq I” value is reported as 63, the “Counts (raw counts for peptide sequence), Seq II” value is reported as 9 and the “Percentage of the pool, averaged across the two sequencing samples” value is reported as 0.018%. The “Percentage of the pool, Seq I” value was 0.014% and the “Percentage of the pool, Seq II” value was 0.021%.
With HVFGNRFFTRG the “Percentage Seq I” value was 0.031%, the “Percentage Seq II” value was 0.039% and the “Percentage Average” value was 0.035%. For the same sequence, the “Counts Seq I” value was 135 and the “Counts Seq II” value was 17.
HVFGNRPFTRG was tested, and the “Counts (raw counts for peptide sequence), Seq I” value was 73, the “Counts (raw counts for peptide sequence), Seq II” value was 5 and the “Percentage of the pool, averaged across the two sequencing samples” value was 0.014%. The “Percentage of the pool, Seq I” value was 0.017% and the “Percentage of the pool, Seq II” value was 0.012%.
In the case of HVFGNRSFARG, the “Counts (raw counts for peptide sequence), Seq I” value is reported as 78, the “Counts (raw counts for peptide sequence), Seq II” value is reported as 6 and the “Percentage of the pool, averaged across the two sequencing samples” value is reported as 0.016%. For the same sequence, the “Percentage of the pool, Seq I” value was 0.018% and the “Percentage of the pool, Seq II” value was 0.014%.
In the case of HVFGNRSFTRG, the “Percentage Seq I” value is reported as 5.324%, the “Percentage Seq II” value is reported as 5.834% and the “Percentage Average” value is reported as 5.579%. For the same sequence, the “Counts Seq I” value was 23292 and the “Counts Seq II” value was 2514.
With HVFGNRSFTSG the “Percentage Seq I” value was 0.017%, the “Percentage Seq II” value was 0.021% and the “Percentage Average” value was 0.019%. For the same sequence, the “Counts Seq I” value was 73 and the “Counts Seq II” value was 9.
In the case of HVFGNRSLTRG, the “Counts (raw counts for peptide sequence), Seq I” value is reported as 93, the “Counts (raw counts for peptide sequence), Seq II” value is reported as 5 and the “Percentage of the pool, averaged across the two sequencing samples” value is reported as 0.016%. The “Percentage of the pool, Seq I” value was 0.021% and the “Percentage of the pool, Seq II” value was 0.012%.
With HVFGNRSSTRG the “Counts (raw counts for peptide sequence), Seq I” value was 69, the “Counts (raw counts for peptide sequence), Seq II” value was 6 and the “Percentage of the pool, averaged across the two sequencing samples” value was 0.015%. The “Percentage of the pool, Seq I” value was 0.016% and the “Percentage of the pool, Seq II” value was 0.014%.
HVFGNRSYTRG was tested, and the “Counts (raw counts for peptide sequence), Seq I” value was 46, the “Counts (raw counts for peptide sequence), Seq II” value was 7 and the “Percentage of the pool, averaged across the two sequencing samples” value was 0.013%. For the same sequence, the “Percentage of the pool, Seq I” value was 0.011% and the “Percentage of the pool, Seq II” value was 0.016%.
In the case of HVFGSRSFTRG, the “Percentage Seq I” value is reported as 0.074%, the “Percentage Seq II” value is reported as 0.084% and the “Percentage Average” value is reported as 0.079%. The “Counts Seq I” value was 323 and the “Counts Seq II” value was 36.
For HVIGNRSFTRG, the “Percentage Seq I” value was 0.020%, the “Percentage Seq II” value was 0.016% and the “Percentage Average” value was 0.018%. The “Counts Seq I” value was 87 and the “Counts Seq II” value was 7.
In the case of HVLGNRSFTRG, the “Percentage Seq I” value is reported as 0.071%, the “Percentage Seq II” value is reported as 0.084% and the “Percentage Average” value is reported as 0.077%. For the same sequence, the “Counts Seq I” value was 312 and the “Counts Seq II” value was 36.
With HVRGDAWTVLG the “Percentage Seq I” value was 0.243%, the “Percentage Seq II” value was 0.216% and the “Percentage Average” value was 0.230%. For the same sequence, the “Counts Seq I” value was 1065 and the “Counts Seq II” value was 93.
With HVSGNRSFTRG the “Percentage Seq I” value was 0.024%, the “Percentage Seq II” value was 0.035% and the “Percentage Average” value was 0.029%. The “Counts Seq I” value was 104 and the “Counts Seq II” value was 15.
With HVYGNRSFTRG the “Counts (raw counts for peptide sequence), Seq I” value was 97, the “Counts (raw counts for peptide sequence), Seq II” value was 5 and the “Percentage of the pool, averaged across the two sequencing samples” value was 0.017%. The “Percentage of the pool, Seq I” value was 0.022% and the “Percentage of the pool, Seq II” value was 0.012%.
For IAFGSRFHSYQ, the “Percentage Seq I” value was 0.584%, the “Percentage Seq II” value was 0.647% and the “Percentage Average” value was 0.616%. The “Counts Seq I” value was 2554 and the “Counts Seq II” value was 279.
For IALGDRTFSFG, the “Percentage Seq I” value was 0.366%, the “Percentage Seq II” value was 0.334% and the “Percentage Average” value was 0.350%. The “Counts Seq I” value was 1603 and the “Counts Seq II” value was 144.
IARGDRNHQFF was tested, and the “Counts (raw counts for peptide sequence), Seq I” value was 42, the “Counts (raw counts for peptide sequence), Seq II” value was 6 and the “Percentage of the pool, averaged across the two sequencing samples” value was 0.012%. The “Percentage of the pool, Seq I” value was 0.010% and the “Percentage of the pool, Seq II” value was 0.014%.
For IARGDRNHQFY, the “Percentage Seq I” value was 0.296%, the “Percentage Seq II” value was 0.251% and the “Percentage Average” value was 0.273%. The “Counts Seq I” value was 1296 and the “Counts Seq II” value was 108.
In the case of IARGDRTFSFG, the “Percentage Seq I” value is reported as 0.013%, the “Percentage Seq II” value is reported as 0.035% and the “Percentage Average” value is reported as 0.024%. The “Counts Seq I” value was 57 and the “Counts Seq II” value was 15.
IARGDWNHQFF was tested, and the “Counts (raw counts for peptide sequence), Seq I” value was 56, the “Counts (raw counts for peptide sequence), Seq II” value was 3 and the “Percentage of the pool, averaged across the two sequencing samples” value was 0.010%. For the same sequence, the “Percentage of the pool, Seq I” value was 0.013% and the “Percentage of the pool, Seq II” value was 0.007%.
With IARGDWNHQFY the “Percentage Seq I” value was 0.514%, the “Percentage Seq II” value was 0.450% and the “Percentage Average” value was 0.482%. The “Counts Seq I” value was 2249 and the “Counts Seq II” value was 194.
In the case of IARGGRHFSSG, the “Counts (raw counts for peptide sequence), Seq I” value is reported as 46, the “Counts (raw counts for peptide sequence), Seq II” value is reported as 4 and the “Percentage of the pool, averaged across the two sequencing samples” value is reported as 0.010%. The “Percentage of the pool, Seq I” value was 0.011% and the “Percentage of the pool, Seq II” value was 0.009%.
With IASGSLHFVFY the “Percentage Seq I” value was 0.027%, the “Percentage Seq II” value was 0.032% and the “Percentage Average” value was 0.030%. For the same sequence, the “Counts Seq I” value was 119 and the “Counts Seq II” value was 14.
For IATGSKLYAKG, the “Percentage Seq I” value was 0.033%, the “Percentage Seq II” value was 0.046% and the “Percentage Average” value was 0.040%. For the same sequence, the “Counts Seq I” value was 145 and the “Counts Seq II” value was 20.
In the case of IIRGNRLTKYE, the “Percentage Seq I” value is reported as 0.020%, the “Percentage Seq II” value is reported as 0.026% and the “Percentage Average” value is reported as 0.023%. The “Counts Seq I” value was 86 and the “Counts Seq II” value was 11.
